One substance from publication PMC6423718 can be followed below.

The target in this test is bZIP domain of chicken CREB3 (chCREB3), Residues 206-280, His-tagged (chicken). The test can be described thus: crystal structure; DNA-free form; sitting-drop vapor diffusion at 4°C, 43% v/v MPD, 100 mM tri-sodium citrate pH 5.6, 10 mM magnesium chloride; molecular replacement; 3.95 Å.

For orientation: stoichiometry N means the number of molecules, sites or subunits per partner or assembly. With “bZIP domain of chicken CREB3 (chCREB3), Residues 206-280, His-tagged (domain or fragment)”, the stoichiometry N came to 2.
